Measurements taken from patent US20240317834A1, “COMPOSITIONS AND METHODS FOR NEUROLOGICAL DISEASES” (CODA BIOTHERAPEUTICS, INC., priority 2020, published 2024).

Test system: Lenti-X 293T cells
Assay: YFP fluorescence quenching anion reporter plate reader assay of engineered receptors stimulated with acetylcholine or a non-native ligand
Type: cell-based
Settings: for percent quench of YFP fluorescence, 10 uM ach: acetylcholine 10 uM; for percent quench of YFP fluorescence, 100 uM ach: acetylcholine 100 uM; for percent quench of YFP fluorescence, 1 mM ach: acetylcholine 1 mM; for percent quench of YFP fluorescence, 3 mM ach: acetylcholine 3 mM
How it was run: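 YFP quench was followed for about 1 min 43 s after ligand delivered in iodide-based ECS, pH 7.2. Values are end-of-read fluorescence (last 10 s) divided by the pre-ligand baseline (15 s). Cells were LX293T, transfected with receptor DNA a day before the assay.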

B1: CODA377: engineered chimeric LGIC receptor, S172D in SEQ ID NO: 33 (protein)
chain: MRCSPGGVWLALAASLLHVSLQGEFQRKLYKELVKNYNPLERPVANDSQPLTVYFSLSLLQIMDVDEKNQVLTTNIWLQMSWTDHYLQWNVSEYPGVKTVRFPDGQIWKPDILLYNSADERFDATFHTNVLVNSSGHCQYLPPGIFKSSCPMDLKNFPMDVQTCKLKFGSWDYGGWSLDLQMQEADISGYIPNGEWDLVGIPGKRSERFYECCKEPYPDVTFTVTMRRRMGYYLIQMYIPSLLIVILSWISFWINMDAAPARVGLGITTVLTMTTQSSGSRASLPKVSYVKAIDIWMAVCLLFVFSALLEYAAVNFVSRQHKELLRFRRKRRHHKSPMLNLFQEDEAGEGRFNFSAYGMGPACLQAKDGISVKGANNSNTTNPPPAPSKSPEEMRKLFIQRAKKIDKISRIGFPMAFLIFNMFYWIIYKIVRREDVHNQ
modifications: synthetic sequence of chimeric LGIC
In the case of B1, the “YFP fluorescence quenching using CNL001” value (1 nM CNL001, first column) is reported as 67.544%, the “YFP fluorescence quenching using CNL001” value (1 nM CNL001, second column) is reported as 74.209% and the “YFP fluorescence quenching using TC-5619/Bradanicline” value (1 nM brd) is reported as 0.77%. For the same molecule, the “YFP fluorescence quenching using TC-5619/Bradanicline” value (3 nM brd) was −4.59%, the “YFP fluorescence quenching using Varenicline” value (3 nM var, first column) was −3.433 and the “YFP fluorescence quenching using Varenicline” value (3 nM var, second column) was −5.737. For the same molecule, the “YFP fluorescence quenching using CNL001” value (10 nM CNL001, first column) was 74.346%, the “YFP fluorescence quenching using CNL001” value (10 nM CNL001, second column) was 75.816% and the “YFP fluorescence quenching using TC-5619/Bradanicline” value (10 nM brd) was 0.06%. For the same molecule, the “YFP fluorescence quenching using TC-5619/Bradanicline” value (30 nM brd) was −10.48%, the “YFP fluorescence quenching using Facinicline” value (30 nM fac) was 4.93 and the “YFP fluorescence quenching using Varenicline” value (30 nM var, first column) was −5.319. For the same molecule, the “YFP fluorescence quenching using Varenicline” value (30 nM var, second column) was −6.175, the “YFP fluorescence quenching using CNL001” value (50 nM CNL001, first column) was 77.068% and the “YFP fluorescence quenching using CNL001” value (50 nM CNL001, second column) was 76.99%. The “YFP fluorescence quenching using ABT-126” value (50 nM abt) was −1.53%, the “YFP fluorescence quenching using CNL001” value (100 nM CNL001, first column) was 79.352% and the “YFP fluorescence quenching using CNL001” value (100 nM CNL001, second column) was 77.865%. For the same molecule, the “YFP fluorescence quenching using CNL002” value (100 nM CNL002) was 59.35%, the “YFP fluorescence quenching using ABT-126” value (100 nM abt) was 18.18% and the “YFP fluorescence quenching using AZD-0328” value (100 nM azd0328) was 65.04%. For the same molecule, the “YFP fluorescence quenching using TC-5619/Bradanicline” value (100 nM brd) was 0.25%, the “YFP fluorescence quenching using ABT-126” value (300 nM abt) was 59.15% and the “YFP fluorescence quenching using AZD-0328” value (300 nM azd0328) was 81.73%. For the same molecule, the “YFP fluorescence quenching using TC-5619/Bradanicline” value (300 nM brd) was −10.61%, the “YFP fluorescence quenching using Facinicline” value (300 nM fac) was 84.13 and the “YFP fluorescence quenching using Varenicline” value (300 nM var, first column) was −4.135. For the same molecule, the “YFP fluorescence quenching using Varenicline” value (300 nM var, second column) was −8.614, the “YFP fluorescence quenching using Varenicline” value (500 nM var, first column) was −6.062 and the “YFP fluorescence quenching using Varenicline” value (500 nM var, second column) was −6.125. For the same molecule, the “YFP fluorescence quenching using CNL001” value (1 uM CNL001, first column) was 80.272%, the “YFP fluorescence quenching using CNL001” value (1 uM CNL001, second column) was 79.432% and the “YFP fluorescence quenching using CNL002” value (1 uM CNL002) was 79.26%. The “YFP fluorescence quenching using ABT-126” value (1 uM abt) was 72.28%, the “YFP fluorescence quenching using TC-5619/Bradanicline” value (1 uM brd) was 3.82% and the “YFP fluorescence quenching using TC-6987” value (1 uM tc6987) was −9.74. The “YFP fluorescence quenching using Varenicline” value (1 uM var, first column) was −14.134, the “YFP fluorescence quenching using Varenicline” value (1 uM var, second column) was −15.373 and the “YFP fluorescence quenching using TC-6987” value (3 uM tc6987) was −14.04. For the same molecule, the “YFP fluorescence quenching using TC-6987” value (5 uM tc6987) was −0.95, the “YFP fluorescence quenching using Facinicline” value (10 uM fac) was 66.96 and the “YFP fluorescence quenching using TC-6987” value (10 uM tc6987) was −7.41. The “YFP fluorescence quenching using CNL002” value (30 uM CNL002) was 79.96%, the “YFP fluorescence quenching using AZD-0328” value (30 uM azd0328) was 82.3% and the “YFP fluorescence quenching using Facinicline” value (30 uM fac) was 85.29. The “YFP fluorescence quenching using TC-6987” value (30 uM tc6987) was −16.12, the “YFP fluorescence quenching using TC-6987” value (50 uM tc6987) was −12.79 and the “YFP fluorescence quenching using TC-6987” value (100 uM tc6987) was −11.77. For the same molecule, the “YFP fluorescence quenching using TC-6987” value (300 uM tc6987) was −19.68, the “YFP fluorescence quenching using TC-6987” value (500 uM tc6987) was −17.02 and the “percent quench of YFP fluorescence, 30 nM TC-6683” value (TC-6683 30 nM) was −20.23%. The “percent quench of YFP fluorescence, 300 nM TC-6683” value (TC-6683 300 nM) was −13.94%, the “percent quench of YFP fluorescence, 3 uM TC-6683” value (TC-6683 3 uM) was −14.17% and the “percent quench of YFP fluorescence, 30 uM TC-6683” value (TC-6683 30 uM) was 1.86%. For the same molecule, the “percent quench of YFP fluorescence, 100 uM TC-6683” value (TC-6683 100 uM) was 43.61%, the “percent quench of YFP fluorescence, 10 uM ach” value was −3.19% and the “percent quench of YFP fluorescence, 100 uM ach” value was 0.07%. The “percent quench of YFP fluorescence, 1 mM ach” value was 71.7% and the “percent quench of YFP fluorescence, 3 mM ach” value was 76.95%.

B2: CODA405: engineered chimeric LGIC receptor, Y210V in SEQ ID NO: 33 (protein)
chain: MRCSPGGVWLALAASLLHVSLQGEFQRKLYKELVKNYNPLERPVANDSQPLTVYFSLSLLQIMDVDEKNQVLTTNIWLQMSWTDHYLQWNVSEYPGVKTVRFPDGQIWKPDILLYNSADERFDATFHTNVLVNSSGHCQYLPPGIFKSSCPMDLKNFPMDVQTCKLKFGSWSYGGWSLDLQMQEADISGYIPNGEWDLVGIPGKRSERFVECCKEPYPDVTFTVTMRRRMGYYLIQMYIPSLLIVILSWISFWINMDAAPARVGLGITTVLTMTTQSSGSRASLPKVSYVKAIDIWMAVCLLFVFSALLEYAAVNFVSRQHKELLRFRRKRRHHKSPMLNLFQEDEAGEGRFNFSAYGMGPACLQAKDGISVKGANNSNTTNPPPAPSKSPEEMRKLFIQRAKKIDKISRIGFPMAFLIFNMFYWIIYKIVRREDVHNQ
modifications: synthetic sequence of chimeric LGIC
B2 was tested, and the “YFP fluorescence quenching using CNL001” value (1 nM CNL001, first column) was −16.246%, the “YFP fluorescence quenching using CNL001” value (1 nM CNL001, second column) was −4.217% and the “YFP fluorescence quenching using TC-5619/Bradanicline” value (3 nM brd) was 9.92%. The “YFP fluorescence quenching using Varenicline” value (3 nM var, first column) was 7.317, the “YFP fluorescence quenching using Varenicline” value (3 nM var, second column) was 7.643 and the “YFP fluorescence quenching using CNL001” value (10 nM CNL001, first column) was −6.142%. For the same molecule, the “YFP fluorescence quenching using CNL001” value (10 nM CNL001, second column) was −10.003%, the “YFP fluorescence quenching using TC-5619/Bradanicline” value (30 nM brd) was 4.37% and the “YFP fluorescence quenching using Facinicline” value (30 nM fac) was −26.25. For the same molecule, the “YFP fluorescence quenching using Varenicline” value (30 nM var, first column) was 9.457, the “YFP fluorescence quenching using Varenicline” value (30 nM var, second column) was 9.134 and the “YFP fluorescence quenching using CNL001” value (50 nM CNL001, first column) was −11.054%. The “YFP fluorescence quenching using CNL001” value (50 nM CNL001, second column) was −10.06%, the “YFP fluorescence quenching using ABT-126” value (50 nM abt) was −2.9% and the “YFP fluorescence quenching using CNL001” value (100 nM CNL001, first column) was −3.832%. For the same molecule, the “YFP fluorescence quenching using CNL001” value (100 nM CNL001, second column) was −3.784%, the “YFP fluorescence quenching using CNL002” value (100 nM CNL002) was −14.3% and the “YFP fluorescence quenching using ABT-126” value (100 nM abt) was −2.06%. For the same molecule, the “YFP fluorescence quenching using AZD-0328” value (100 nM azd0328) was −8.13%, the “YFP fluorescence quenching using ABT-126” value (300 nM abt) was −0.19% and the “YFP fluorescence quenching using AZD-0328” value (300 nM azd0328) was −3.35%. For the same molecule, the “YFP fluorescence quenching using TC-5619/Bradanicline” value (300 nM brd) was 59%, the “YFP fluorescence quenching using Facinicline” value (300 nM fac) was −23.52 and the “YFP fluorescence quenching using Varenicline” value (300 nM var, first column) was 15.503. For the same molecule, the “YFP fluorescence quenching using Varenicline” value (300 nM var, second column) was 11.954, the “YFP fluorescence quenching using Varenicline” value (500 nM var, first column) was 13.427 and the “YFP fluorescence quenching using Varenicline” value (500 nM var, second column) was 10.784. The “YFP fluorescence quenching using CNL001” value (1 uM CNL001, first column) was 1.129%, the “YFP fluorescence quenching using CNL001” value (1 uM CNL001, second column) was 7.1% and the “YFP fluorescence quenching using CNL002” value (1 uM CNL002) was −7.56%. The “YFP fluorescence quenching using ABT-126” value (1 uM abt) was −3.64%, the “YFP fluorescence quenching using TC-6987” value (1 uM tc6987) was −22.63 and the “YFP fluorescence quenching using Varenicline” value (1 uM var, first column) was 9.032. The “YFP fluorescence quenching using Varenicline” value (1 uM var, second column) was 11.591, the “YFP fluorescence quenching using TC-6987” value (10 uM tc6987) was −23.03 and the “YFP fluorescence quenching using CNL002” value (30 uM CNL002) was −2.02%. For the same molecule, the “YFP fluorescence quenching using AZD-0328” value (30 uM azd0328) was −2.86%, the “YFP fluorescence quenching using Facinicline” value (30 uM fac) was 0.83 and the “YFP fluorescence quenching using TC-6987” value (500 uM tc6987) was −40.88. The “percent quench of YFP fluorescence, 10 uM ach” value was −6.31%, the “percent quench of YFP fluorescence, 100 uM ach” value was −14.48% and the “percent quench of YFP fluorescence, 1 mM ach” value was −2.82%. For the same molecule, the “percent quench of YFP fluorescence, 3 mM ach” value was 1.06%.
